# Laboratory results taken from patent publication US20100184658A1 (published 2010).
# T1: GRK7 (UniProt Q8WTQ7 1-553, limits assumed)
# T1 sequence (looked up): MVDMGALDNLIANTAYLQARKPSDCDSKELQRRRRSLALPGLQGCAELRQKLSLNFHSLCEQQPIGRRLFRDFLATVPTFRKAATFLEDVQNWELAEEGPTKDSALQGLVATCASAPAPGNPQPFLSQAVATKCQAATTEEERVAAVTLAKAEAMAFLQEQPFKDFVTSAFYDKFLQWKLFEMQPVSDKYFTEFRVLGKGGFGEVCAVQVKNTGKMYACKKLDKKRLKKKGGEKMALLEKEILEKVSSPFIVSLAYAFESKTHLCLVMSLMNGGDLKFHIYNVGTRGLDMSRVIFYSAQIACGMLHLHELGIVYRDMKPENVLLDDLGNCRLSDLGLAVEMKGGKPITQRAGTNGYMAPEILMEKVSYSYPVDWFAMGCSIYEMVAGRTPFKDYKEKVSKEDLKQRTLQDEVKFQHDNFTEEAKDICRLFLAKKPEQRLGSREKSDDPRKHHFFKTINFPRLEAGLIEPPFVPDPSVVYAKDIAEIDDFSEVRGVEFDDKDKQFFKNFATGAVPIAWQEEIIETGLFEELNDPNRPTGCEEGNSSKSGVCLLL
# T2: TYK2 (UniProt P29597 871-1187, limits assumed)
# T2 sequence (looked up): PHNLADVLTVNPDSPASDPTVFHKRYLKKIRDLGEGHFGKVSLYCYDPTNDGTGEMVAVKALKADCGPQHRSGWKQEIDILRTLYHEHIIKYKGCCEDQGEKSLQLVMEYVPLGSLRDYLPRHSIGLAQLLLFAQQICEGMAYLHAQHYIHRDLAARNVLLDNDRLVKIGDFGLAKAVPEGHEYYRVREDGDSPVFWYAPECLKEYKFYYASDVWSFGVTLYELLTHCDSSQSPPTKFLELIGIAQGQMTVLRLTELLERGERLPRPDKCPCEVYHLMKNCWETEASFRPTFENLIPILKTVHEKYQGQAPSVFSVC
# T3: ADRBK2 (GRK3) (UniProt P35626 1-688, limits assumed)
# T3 sequence (looked up): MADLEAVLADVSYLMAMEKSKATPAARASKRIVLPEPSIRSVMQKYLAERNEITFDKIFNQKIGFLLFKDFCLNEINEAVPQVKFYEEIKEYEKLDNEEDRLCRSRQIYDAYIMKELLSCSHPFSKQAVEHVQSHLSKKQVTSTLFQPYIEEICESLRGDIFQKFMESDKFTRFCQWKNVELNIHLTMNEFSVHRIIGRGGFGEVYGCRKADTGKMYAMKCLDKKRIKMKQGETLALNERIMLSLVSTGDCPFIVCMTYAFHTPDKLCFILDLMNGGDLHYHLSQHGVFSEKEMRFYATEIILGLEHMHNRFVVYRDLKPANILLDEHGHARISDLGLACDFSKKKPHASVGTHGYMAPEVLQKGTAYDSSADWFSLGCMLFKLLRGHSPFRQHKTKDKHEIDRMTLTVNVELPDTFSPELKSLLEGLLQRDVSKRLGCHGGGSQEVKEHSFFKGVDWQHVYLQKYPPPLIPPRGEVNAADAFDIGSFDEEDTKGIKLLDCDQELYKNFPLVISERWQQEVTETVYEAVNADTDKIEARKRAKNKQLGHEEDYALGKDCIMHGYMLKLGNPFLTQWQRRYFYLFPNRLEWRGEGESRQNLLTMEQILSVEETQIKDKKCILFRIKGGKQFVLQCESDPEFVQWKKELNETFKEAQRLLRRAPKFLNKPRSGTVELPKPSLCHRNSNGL
# B1: D3 peptide (peptide)
# peptide: SGRPPMIVWFNRPFLIAVSHTHGQTILFMAKVINPVGA
# Key:
# Test in all cases: cell-based or functional assay
# GRK5 = GRK5 (UniProt P34947 1-590, limits assumed)
# GRK5, sequence (P34947 whole entry): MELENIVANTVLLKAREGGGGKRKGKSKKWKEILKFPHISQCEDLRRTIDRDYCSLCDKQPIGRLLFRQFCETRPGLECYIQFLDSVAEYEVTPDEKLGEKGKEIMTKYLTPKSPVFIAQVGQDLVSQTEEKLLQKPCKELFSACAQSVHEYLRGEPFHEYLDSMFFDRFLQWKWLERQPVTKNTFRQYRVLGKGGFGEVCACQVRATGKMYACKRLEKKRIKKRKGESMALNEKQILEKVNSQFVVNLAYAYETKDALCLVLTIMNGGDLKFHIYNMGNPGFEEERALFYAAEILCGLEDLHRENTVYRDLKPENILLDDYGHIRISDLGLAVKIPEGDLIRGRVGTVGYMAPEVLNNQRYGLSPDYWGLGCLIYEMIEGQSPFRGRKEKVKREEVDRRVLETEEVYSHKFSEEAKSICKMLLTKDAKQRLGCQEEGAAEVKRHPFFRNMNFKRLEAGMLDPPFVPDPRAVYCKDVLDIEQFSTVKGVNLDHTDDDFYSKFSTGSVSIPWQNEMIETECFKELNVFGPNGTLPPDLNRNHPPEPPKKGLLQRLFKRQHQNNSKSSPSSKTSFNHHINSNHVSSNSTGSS
# ABL1 G250E = ABL1 G250E (UniProt P00519 1-1130, limits assumed)
# PLK1 Polo-like kinase 1 = PLK1 Polo-like kinase 1 (UniProt P53350 1-603, limits assumed)
# PLK1 Polo-like kinase 1, sequence (P53350 whole entry): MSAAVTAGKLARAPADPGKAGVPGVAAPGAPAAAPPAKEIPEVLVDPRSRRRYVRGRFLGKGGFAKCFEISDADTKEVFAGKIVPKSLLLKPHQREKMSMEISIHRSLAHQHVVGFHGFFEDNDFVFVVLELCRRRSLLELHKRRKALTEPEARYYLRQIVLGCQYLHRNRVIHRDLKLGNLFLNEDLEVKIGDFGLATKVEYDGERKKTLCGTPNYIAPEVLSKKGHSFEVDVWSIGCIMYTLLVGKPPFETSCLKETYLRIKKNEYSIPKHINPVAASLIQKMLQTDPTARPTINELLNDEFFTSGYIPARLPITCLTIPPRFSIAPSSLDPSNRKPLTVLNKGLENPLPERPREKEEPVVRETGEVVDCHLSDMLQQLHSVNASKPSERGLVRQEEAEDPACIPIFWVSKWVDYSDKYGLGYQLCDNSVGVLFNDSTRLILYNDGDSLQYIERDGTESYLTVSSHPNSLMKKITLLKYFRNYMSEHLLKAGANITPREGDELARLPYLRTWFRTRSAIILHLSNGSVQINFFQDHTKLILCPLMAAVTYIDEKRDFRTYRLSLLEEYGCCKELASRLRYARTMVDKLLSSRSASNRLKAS
# GRK7 = molecular target: T1, GRK7
# [1] = molecular target: PAK4 P21(CDKN1A)-activated kinase 4 (UniProt O96013 1-591, limits assumed)
# PAK4 P21(CDKN1A)-activated kinase 4, sequence (O96013 whole entry): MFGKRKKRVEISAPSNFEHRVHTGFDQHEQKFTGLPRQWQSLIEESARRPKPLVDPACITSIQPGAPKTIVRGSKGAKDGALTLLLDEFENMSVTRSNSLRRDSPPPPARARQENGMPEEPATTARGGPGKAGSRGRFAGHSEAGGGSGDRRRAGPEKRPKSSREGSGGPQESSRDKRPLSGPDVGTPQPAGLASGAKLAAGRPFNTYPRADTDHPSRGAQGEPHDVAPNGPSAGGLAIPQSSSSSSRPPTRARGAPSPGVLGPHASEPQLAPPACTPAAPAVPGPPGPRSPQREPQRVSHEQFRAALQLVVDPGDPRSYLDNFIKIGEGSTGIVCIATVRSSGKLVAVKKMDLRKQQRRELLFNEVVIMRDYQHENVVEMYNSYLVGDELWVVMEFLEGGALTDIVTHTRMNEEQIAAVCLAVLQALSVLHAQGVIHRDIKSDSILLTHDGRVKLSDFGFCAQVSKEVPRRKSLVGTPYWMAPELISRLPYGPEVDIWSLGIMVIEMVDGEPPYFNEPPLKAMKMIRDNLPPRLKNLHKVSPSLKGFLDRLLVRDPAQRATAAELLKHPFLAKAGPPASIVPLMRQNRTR
# SRMS (Srm) = SRMS (Srm) (UniProt Q9H3Y6 1-488, limits assumed)
# SRMS (Srm), sequence (Q9H3Y6 whole entry): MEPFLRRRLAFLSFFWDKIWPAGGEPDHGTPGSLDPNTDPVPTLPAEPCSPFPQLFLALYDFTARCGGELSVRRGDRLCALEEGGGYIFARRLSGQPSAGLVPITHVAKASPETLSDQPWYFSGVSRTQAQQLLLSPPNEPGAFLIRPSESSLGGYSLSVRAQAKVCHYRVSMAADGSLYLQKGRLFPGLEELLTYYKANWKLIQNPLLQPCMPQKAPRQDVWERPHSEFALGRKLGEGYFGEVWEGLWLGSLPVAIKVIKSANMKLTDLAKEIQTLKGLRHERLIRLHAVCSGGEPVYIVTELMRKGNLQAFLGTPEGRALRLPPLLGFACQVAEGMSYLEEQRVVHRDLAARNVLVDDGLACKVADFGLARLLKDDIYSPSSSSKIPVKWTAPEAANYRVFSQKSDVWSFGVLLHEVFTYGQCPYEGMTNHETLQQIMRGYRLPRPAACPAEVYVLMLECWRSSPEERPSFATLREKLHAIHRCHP
# PRKCH (PKC eta) = PRKCH (PKC eta) (UniProt P24723 1-683, limits assumed)
# PRKCA (PKC alpha) = PRKCA (PKC alpha) (UniProt P17252 1-672, limits assumed)
# [2] = molecular target: BRAF V-raf murine sarcoma viral oncogene homolog B1 (UniProt P15056 416-766, limits assumed)
# BRAF V-raf murine sarcoma viral oncogene homolog B1, sequence (P15056 416-766 limits assumed): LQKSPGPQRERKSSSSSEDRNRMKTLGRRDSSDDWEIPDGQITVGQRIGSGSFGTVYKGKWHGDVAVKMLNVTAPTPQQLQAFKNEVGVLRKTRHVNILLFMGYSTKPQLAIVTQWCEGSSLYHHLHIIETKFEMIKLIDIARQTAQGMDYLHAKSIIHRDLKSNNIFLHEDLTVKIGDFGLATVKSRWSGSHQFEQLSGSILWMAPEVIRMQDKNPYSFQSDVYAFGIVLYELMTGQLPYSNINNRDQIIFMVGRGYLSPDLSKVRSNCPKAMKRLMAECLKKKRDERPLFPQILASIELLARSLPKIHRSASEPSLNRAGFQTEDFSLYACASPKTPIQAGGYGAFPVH
# MAP4K4 (HGK) = MAP4K4 (HGK) (UniProt O95819 1-328, limits assumed)
# MAP4K4 (HGK), sequence (O95819 1-328 limits assumed): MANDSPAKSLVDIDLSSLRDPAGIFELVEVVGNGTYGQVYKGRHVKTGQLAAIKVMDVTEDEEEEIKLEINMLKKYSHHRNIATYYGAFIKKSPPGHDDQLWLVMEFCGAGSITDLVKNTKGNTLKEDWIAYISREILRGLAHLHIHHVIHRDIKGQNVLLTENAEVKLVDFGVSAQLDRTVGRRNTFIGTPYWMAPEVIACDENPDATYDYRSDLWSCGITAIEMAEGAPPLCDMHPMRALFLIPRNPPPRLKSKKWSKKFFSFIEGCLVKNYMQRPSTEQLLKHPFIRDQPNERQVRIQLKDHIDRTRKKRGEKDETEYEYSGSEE
# [3] = molecular target: STK25 (YSK1) Serine/threonine kinase 25 (STE20 homolog, yeast) (UniProt O00506 1-426, limits assumed)
# STK25 (YSK1) Serine/threonine kinase 25 (STE20 homolog, yeast), sequence (O00506 whole entry): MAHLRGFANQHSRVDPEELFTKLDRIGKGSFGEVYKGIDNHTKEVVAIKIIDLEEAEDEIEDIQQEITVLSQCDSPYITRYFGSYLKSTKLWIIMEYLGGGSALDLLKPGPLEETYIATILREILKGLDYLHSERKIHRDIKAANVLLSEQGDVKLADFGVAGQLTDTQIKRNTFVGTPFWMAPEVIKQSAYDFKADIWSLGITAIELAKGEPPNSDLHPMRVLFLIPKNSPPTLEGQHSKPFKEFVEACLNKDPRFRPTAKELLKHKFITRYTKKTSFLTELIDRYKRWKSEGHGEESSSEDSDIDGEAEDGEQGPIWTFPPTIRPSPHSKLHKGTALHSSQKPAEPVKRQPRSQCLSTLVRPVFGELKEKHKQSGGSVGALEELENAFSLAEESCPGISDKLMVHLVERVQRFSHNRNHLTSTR
# [4] = molecular target: PRKCB1 (PKC beta I) Protein kinase C, beta 1 (UniProt P05771 1-671)
# PRKCB1 (PKC beta I) Protein kinase C, beta 1, sequence (P05771 whole entry): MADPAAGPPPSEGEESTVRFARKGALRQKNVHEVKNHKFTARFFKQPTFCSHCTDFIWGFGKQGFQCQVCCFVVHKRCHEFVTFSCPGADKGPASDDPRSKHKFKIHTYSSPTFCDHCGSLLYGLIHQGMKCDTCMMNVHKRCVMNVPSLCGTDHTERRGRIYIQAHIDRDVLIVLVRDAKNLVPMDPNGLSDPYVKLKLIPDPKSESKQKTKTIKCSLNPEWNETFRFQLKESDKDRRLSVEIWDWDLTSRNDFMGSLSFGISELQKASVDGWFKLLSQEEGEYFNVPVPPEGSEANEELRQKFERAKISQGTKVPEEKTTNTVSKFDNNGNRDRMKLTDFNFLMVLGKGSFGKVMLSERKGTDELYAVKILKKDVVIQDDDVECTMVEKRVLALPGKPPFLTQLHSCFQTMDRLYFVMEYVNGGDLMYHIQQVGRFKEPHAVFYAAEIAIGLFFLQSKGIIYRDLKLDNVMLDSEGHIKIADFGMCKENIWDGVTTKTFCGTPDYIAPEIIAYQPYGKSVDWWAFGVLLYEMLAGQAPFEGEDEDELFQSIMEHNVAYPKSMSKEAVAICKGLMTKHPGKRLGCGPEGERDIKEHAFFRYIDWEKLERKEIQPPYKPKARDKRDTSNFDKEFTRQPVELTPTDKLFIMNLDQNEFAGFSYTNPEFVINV
# PRKCQ (PKC theta) = PRKCQ (PKC theta) (UniProt Q04759 1-706, limits assumed)
# PRKCQ (PKC theta), sequence (Q04759 whole entry): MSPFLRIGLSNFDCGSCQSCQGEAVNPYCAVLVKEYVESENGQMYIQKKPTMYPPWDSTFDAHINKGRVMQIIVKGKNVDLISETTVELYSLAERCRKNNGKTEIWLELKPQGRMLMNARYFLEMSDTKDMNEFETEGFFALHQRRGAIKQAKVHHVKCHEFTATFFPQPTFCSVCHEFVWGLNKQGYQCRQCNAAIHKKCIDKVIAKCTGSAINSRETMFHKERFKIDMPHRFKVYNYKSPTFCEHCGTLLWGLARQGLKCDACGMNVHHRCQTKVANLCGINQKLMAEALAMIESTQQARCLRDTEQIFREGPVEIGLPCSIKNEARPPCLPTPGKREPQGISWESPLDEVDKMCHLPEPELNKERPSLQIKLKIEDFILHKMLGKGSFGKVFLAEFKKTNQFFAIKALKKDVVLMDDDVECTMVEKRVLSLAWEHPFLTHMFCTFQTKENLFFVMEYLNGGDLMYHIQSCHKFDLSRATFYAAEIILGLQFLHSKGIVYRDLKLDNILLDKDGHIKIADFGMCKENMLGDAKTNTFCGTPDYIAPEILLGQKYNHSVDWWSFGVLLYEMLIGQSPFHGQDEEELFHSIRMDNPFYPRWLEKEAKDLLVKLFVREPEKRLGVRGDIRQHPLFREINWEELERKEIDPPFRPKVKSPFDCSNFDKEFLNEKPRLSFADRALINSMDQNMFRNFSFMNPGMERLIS
# PRKCG (PKC gamma) = PRKCG (PKC gamma) (UniProt P05129 1-697, limits assumed)
# TYK2 = molecular target: T2, TYK2
# ADRBK2 (GRK3) = molecular target: T3, ADRBK2 (GRK3)
# Note: test concentration or dose not given here.
binder,measurement,setting,value
B1,% Inhibition mean,GRK5,50.8%
same,% Inhibition mean,ABL1 G250E,50.7%
same,% Inhibition mean,PLK1 Polo-like kinase 1,51%
same,% Inhibition mean,GRK7,49.9%
same,% Inhibition mean,[1],47%
same,% Inhibition mean,SRMS (Srm),46.5%
same,% Inhibition mean,PRKCH (PKC eta),46.5%
same,% Inhibition mean,PRKCA (PKC alpha),45.1%
same,% Inhibition mean,[2],100%
same,% Inhibition mean,MAP4K4 (HGK),100%
same,% Inhibition mean,[3],93.1%
same,% Inhibition mean,[4],88%
same,% Inhibition mean,PRKCQ (PKC theta),86.3%
same,% Inhibition mean,PRKCG (PKC gamma),81%
same,% Inhibition mean,TYK2,70.5%
same,% Inhibition mean,ADRBK2 (GRK3),66.7%
